Reference: article PMC4613710, “A biophysical study on molecular physiology of the uncoupling proteins of the central nervous system” (Bioscience Reports, 2015)

B1: human uncoupling protein 5 (His6-ENLYFQG-hUCP5) (natural protein, UniProt O95258 1-325, looked up)
chain: MGIFPGIILIFLRVKFATAAVIVSGHQKSTTVSHEMSGLNWKPFVYGGLASIVAEFGTFPVDLTKTRLQVQGQSIDARFKEIKYRGMFHALFRICKEEGVLALYSGIAPALLRQASYGTIKIGIYQSLKRLFVERLEDETLLINMICGVVSGVISSTIANPTDVLKIRMQAQGSLFQGSMIGSFIDIYQQEGTRGLWRGVVPTAQRAAIVVGVELPVYDITKKHLILSGMMGDTILTHFVSSFTCGLAGALASNPVDVVRTRMMNQRAIVGHVDLYKGTVDGILKMWKHEGFFALYKGFWPNWLRLGPWNIIFFITYEQLKRLQI
notes: uncoupling protein 5 (UCP5), human; cDNA bought from A.T.C.C., sub-cloned into pET26b(+); Tetramer is the predominant form in POPC liposomes without SDS; dimers and a few monomers at 83 mM SDS; also called neuronal UCP
B2: human uncoupling protein 2 (His6-ENLYFQG-hUCP2) (natural protein, UniProt P55851 1-309, looked up)
chain: MVGFKATDVPPTATVKFLGAGTAACIADLITFPLDTAKVRLQIQGESQGPVRATASAQYRGVMGTILTMVRTEGPRSLYNGLVAGLQRQMSFASVRIGLYDSVKQFYTKGSEHASIGSRLLAGSTTGALAVAVAQPTDVVKVRFQAQARAGGGRRYQSTVNAYKTIAREEGFRGLWKGTSPNVARNAIVNCAELVTYDLIKDALLKANLMTDDLPCHFTSAFGAGFCTTVIASPVDVVKTRYMNSALGQYSSAGHCALTMLQKEGPRAFYKGFMPSFLRLGSWNVVMFVTYEQLKRALMAACTSREAPF
notes: uncoupling protein 2 (UCP2), human; cDNA clone pET21a-UCP2 sub-cloned into pET26b(+); Tetramer is the predominant form in POPC liposomes without SDS; dimers and a few monomers at 83 mM SDS; PDB 2LCK is only viewed as a model of UCP2; also called neuronal UCP
B3: human uncoupling protein 4 (His6-ENLYFQG-hUCP4) (natural protein, UniProt O95847 1-323, looked up)
chain: MSVPEEEERLLPLTQRWPRASKFLLSGCAATVAELATFPLDLTKTRLQMQGEAALARLGDGARESAPYRGMVRTALGIIEEEGFLKLWQGVTPAIYRHVVYSGGRMVTYEHLREVVFGKSEDEHYPLWKSVIGGMMAGVIGQFLANPTDLVKVQMQMEGKRKLEGKPLRFRGVHHAFAKILAEGGIRGLWAGWVPNIQRAALVNMGDLTTYDTVKHYLVLNTPLEDNIMTHGLSSLCSGLVASILGTPADVIKSRIMNQPRDKQGRGLLYKSSTDCLIQAVQGEGFMSLYKGFLPSWLRMTPWSMVFWLTYEKIREMSGVSPF
notes: uncoupling protein 4 (UCP4), human; cDNA synthesized by GenScript, sub-cloned into pET26b(+); Tetramer is the predominant form in POPC liposomes without SDS; dimers and a few monomers at 83 mM SDS; also called neuronal UCP

Target: the molecule itself
Test: other fluorescence titration; Trp fluorescence (excitation 295 nm, 25 C) of UCP in POPC liposomes titrated with SDS (0-83.9 mM); maximum intensity against [SDS], Hill fit; Ka1/2 low SDS range (0-10 mM): tetramer to tight dimers; Kb1/2 high SDS range (10-100 mM): tight dimers to loose dimers and monomers

Protein	Fl Ka1/2 (first transition, tetramer to dimers, [SDS])	Fl Kb1/2 (second transition, dimers to loose dimers and monomers, [SDS])
B1	0.6 ± 0.1 mM SDS	8.9 ± 0.2 mM SDS
B2	0.61 ± 0.1 mM SDS	7.1 ± 0.3 mM SDS
B3	0.6 ± 0.1 mM SDS	9.8 ± 0.3 mM SDS

Target: the molecule itself
Test: far-UV CD spectroscopy, SDS titration; UCP reconstituted in POPC liposomes titrated with SDS (0-83 mM); normalised theta208/theta222 against [SDS], Hill fit; K1/2 = [SDS] at 50% protein dissociation; tetramer to dimers

Protein	CD K1/2 ([SDS] at 50% protein dissociation)
B1	1 ± 0.1 mM SDS
B2	1.1 ± 0.1 mM SDS
B3	1 ± 0.1 mM SDS

Target: the molecule itself
Test: native gel or EMSA; semi-native PAGE (12% gel, 2 mM SDS in running buffer only), UCP reconstituted in POPC liposomes, loading buffer lacking SDS, Coomassie stain; bands identified by LC-MS/MS

Protein	stoichiometry N
B1	4
B2	4
B3	4

Target: the molecule itself
Test: native gel or EMSA; semi-native PAGE (12% gel), UCP reconstituted in POPC liposomes titrated with SDS to 83 mM (about 40x CMC), Coomassie stain; bands identified by LC-MS/MS

Protein	stoichiometry N
B1	2
B2	2
B3	2
